Measured values as given in patent publication US10080776B2, “Molecular marker for cancer stem cell” (Sapporo Medical University, priority 2008, dated 2018).
Entries after “also recorded” stand apart in the source; their conditions may differ. No end group written: not given here.

Experiments:
[1] = test system: T2A24 cells pulsed with peptide; test: Cr51 cytotoxicity assay: SOX2 peptide-induced CTLs against peptide-pulsed T2A24; assay type: cell-based, human; conditions: Cr51 release, 4 hours
Method: 50 mL of peripheral blood from HLA-A24-positive lung cancer patients who gave informed consent and HLA-A24-positive healthy subjects was centrifuged in a Ficoll-Conray density gradient, and peripheral blood mononuclear cells (PBMC) were separated and collected. Subsequently, lymphocytes of PBMC were separated into CD8-positive lymphocytes and CD8-negative lymphocytes using CD8 MACS beads.
In a 96 well plate, 200000 cells/well of CD8-negative lymphocytes and the above-mentioned HLA-A24 binding SOX2 peptide were mixed, and the mixture was allowed to stand at room temperature for 2 hours, and then subjected to a degree of 100 Gy radiation treatment. […] The peptide-specific reactivity of the induced CTLs was evaluated by a cytotoxicity assay or an ELISPOT assay.
Cr^51 was added to T2A24 cells, the cells were cultured in RPMI medium at 37° C. for 1 hour, radiolabeled, and washed with RPMI medium 4 times. […] Supernatant was then collected, and the gamma-ray dose was measured using a gamma counter.
The dose when only RPMI medium and peptide-pulsed T2A24 were cultured was defined as spontaneous release (SPR), the dose when cell lysate (2% NP40) and peptide-pulsed T2A24 were cultured was defined as maximum release (MXR), and cellular cytotoxicity was calculated as (measured value−SPR)/(MXR−SPR)×100.

HLA-A2402 = HLA-A2402 (Homo sapiens, UniProt P04439, D101N/D140Y/D185E/E176V/E190D/F33S/G103R/G107R/I119L/I121M/I306V/K335N/L105A/L180Q/L300P/N151K/N90K/Q86E/Q94H/R106L/R138H/R89G/T104I/T345S/V100E/W191G/Y123F); test: HLA-A24 peptide binding assay of or7c1-derived peptides; conditions: T2A24 cells, fluorescence of HLA-A24 antibody
Method: Cell line T2A24 for which HLA-A2402 had been gene-transferred to peptide transporter-deficient T2 cells was used in an assay, and experiment was carried out in the same way as in Experimental Example 16. In this Experimental Example, SL-8 was used as a negative control, and survivin-2B (SEQ ID No: 72) was used as a positive control.
The peptides below were prepared in the same way as in Experimental Example 26, and a binding assay was carried out.

[2] = test system: T2A24 pulsed with peptide; test: 51Cr release assay with CTLs and or7c1 peptide-pulsed T2A24; assay type: cell-based, human; conditions: T2A24 pulsed with 5 μg/mL peptide, E/T ratios of 20 and 6
Method: PBMC was separated from whole blood (heparin added) sampled from a test subject using Lymphoprep (Nycomed). After PBMC was cultured at 37° C. for 24 hours, an experiment was carried out using non-adherent cells. In order to obtain CD8-positive cells from the non-adherent cells, CD8-positive and -negative cells were separated using a magnetic cell separation system (Miltenyi Biotech). For CD8-negative cells, 100 U/mL IL-2 and 1 μg/mL PHA-P were added to AIM-V medium (Life Technologies) to give PHA-blast. The CD8-positive cells were cultured in AIM-V medium at 37° C. and stimulated with ⅕ the amount of PHA-blast three times every 7 days (0th day, 7th day, 14th day). From the 8th day, 50 U/mL of IL-2 was added to the medium, and thereafter every 3 to 4 days the medium was exchanged, and 50 U/mL of IL-2 was added. The cells were subjected as CTLs to ELISPOT on the 21st day and a ^51Cr release assay on the 28th day.
In an assay for measuring cellular cytotoxicity, cells were labeled with radioactive ^51Cr, and cellular cytotoxicity by CTLs was measured. CTLs were used as effector cells, and T2A24, K562, Sw480, and Sw480 constitutively expressing or7c1 were used as target cells. […] Kill %=(measured release−spontaneous release)×100/(maximum release−spontaneous release)

Row | Substance | binding to HLA-A2402 (HLA-A2402) | further results
1 | KYRPRRKTKTL [SOX2_109 peptide, KYRPRRKTKTL] | – | cellular cytotoxicity of CTLs against peptide-pulsed T2A24 [1]: strong radiation was detected; also recorded: extremely high level of cytotoxicity
2 | RYLRDQQLLGI [HIV-derived peptide, reference compound] | – | cellular cytotoxicity of CTLs against peptide-pulsed T2A24 [1]: hardly any radiation due to damaged cells was detected
3 | MYLVTFTGNL (peptide fragment of OR7C1) [34(10)] | binding to HLA-A2402 was observed | –
4 | TYAGCLSQIF [93(10), TYAGCLSQIF] | – | cellular cytotoxicity (kill %) [2]: higher cellular cytotoxicity

More lines, main results first:

Row | binding to HLA-A2402 (HLA-A2402) | Substance | further results
5 | binding to HLA-A2402 was observed | FYGTGFGVYL (peptide fragment of OR7C1) [251(10)] | –
6 | binding to HLA-A2402 was observed | MYTMVTPML (peptide fragment of OR7C1) [277(9)] | –
7 | binding to HLA-A2402 was observed | HYTViMNPQL (HYTVIMNPQL; not fully specified (residue 5); printed as HYTViMNPQL) [131(10)] | –
